Data on ten molecules can be found in patent publication US20120094909A1 (Bristol-Myers Squibb, published 2012).

For orientation: EC50 means the concentration giving half of the maximal effect. The Kd is the equilibrium constant for the complex coming apart. Low readings indicate higher affinity, high ones lower affinity.

For assay [1], the target named is T1, human PCSK9 (proprotein convertase subtilisin kexin type 9) (human, UniProt Q8NBP7 31-692).
T1 construct: immobilized directly (ProteOn), biotinylated (Octet) or in solution, according to the assay; also called hPCSK9; PCSK9-AF647 (labelled form)
As to the kind of experiment: PCSK9:EGFA FRET, competitor EGFA peptide.

The target of assay [2] is T1, human PCSK9 (proprotein convertase …). As to the kind of experiment: cell-based or functional assay.
For assay [3] the target is unchanged. Briefly: BLI (Octet Red), 37 C. Here is the method: Tips were then immersed into a buffer-only well for observation of Adnectin dissociation. Experiments were performed in a temperature controlled environment at either 25 or 37° C., and the oscillation speed was set at 1500 rpm.
Binding interaction analysis was performed using proprietary software from Fortebio (Fortebio Data Analysis Software version 6.3.0.36). Global fits were performed for all samples, using a 1:1 binding model. The nature of these global fits constrained all values of concentration to a single pair of association and dissociation rates that were themselves constrained to each other. Affinities (KD), association and dissociation rates were averaged over the various loading levels used in the analysis.

B1: 2381G09 (designed binder)
chain: MGVSDVPRDLEVVAATPTSLLISWDAPAGDGYGYYRITYGETGGNSPVQEFTVPVSKGTATISGLKPGVDYTITVYAVEFTFPGAGYYHRPISINYRTEIDKPSQHHHHHH
For the molecule B1, the midpoint of the response in assay [1], the EC50, lay at 3.1 nM. Also, the “LDLR Depletion (% inhibition at 75 nM)” value in assay [2] is 133%. This molecule also yielded a Kd in assay [3] of 1.12 nM.

B2: 2382E03 (designed binder)
chain: MGVSDVPRDLEVVAATPTSLLISWDAPAGDGYGYYRITYGETGGNSPVQEFTVPVSKGTATISGLKPGVDYTITVYAVEFDFPGAGYYHRPISINYRTEIDKPSQHHHHHH
B2 showed a concentration giving a half-maximal response (EC50) in assay [1] of 2.4 nM. Besides, the “LDLR Depletion (% inhibition at 75 nM)” value in assay [2] came to 89.5%. Also, in assay [3], the Kd turned out to be 2.94 nM.

B3: 2382G04 (designed binder)
chain: MGVSDVPRDLEVVAATPTSLLISWDAPAGGGYGYYRITYGETGGNSPVQEFTVPSSKGTATISGLKPGVDYTITVYAVEFDFPGAGYYHRPISINYRTEIDKPSQHHHHHH
Turning to B3, in assay [1], the EC50 came out at 2.9 nM. The “LDLR Depletion (% inhibition at 75 nM)” value in assay [2] turned out to be 146%. The molecule also came in with a Kd in assay [3] of 1.11 nM.

B4: 2382D03 (designed binder)
chain: MGVSDVPRDLEVVAATPTSLLISWDAPADEAYGYYRITYGETGGNSPVQEFTVPVSKGTATISGLKPGVDYTITVYAVEFDFPGAGYYHRPISINYRTEIDKPSQHHHHHH
In turn, B4 returned a half-maximal effective concentration (EC50) in assay [1] of 3.3 nM. Further, the “LDLR Depletion (% inhibition at 75 nM)” value in assay [2] stood at 80.4%. The same molecule showed a Kd in assay [3] of 1.53 nM.

B5: 2382C05 (designed binder)
chain: MGVSDVPRDLEVVAATPTSLLISWDAPADGAYGYYRITYGETGGNSPVQEFTVPVSKGTATISGLKPGVDYTITVYAVEYSFPGAGYYHRPISINYRTEIDKPSQHHHHHH
As for B5, in assay [1], a half-maximal effect (EC50) was put at 4 nM. The “LDLR Depletion (% inhibition at 75 nM)” value in assay [2] was 105%. This molecule gave a Kd in assay [3] of 2.49 nM.

B6: 2381H09 (designed binder)
chain: MGVSDVPRDLEVVAATPTSLLISWDAPAGGGYGYYRITYGETGGNSPVQEFTVPVSKGTATISGLKPGVDYTITVYAVEFDFVGAGYYHRPISINYRTEIDKPSQHHHHHH
In assay [1], B6 registered an EC50 of 3.4 nM. The “LDLR Depletion (% inhibition at 75 nM)” value in assay [2] stood at 94.4%. The same molecule gave a Kd in assay [3] of 3.23 nM.

B7: 2382H03 (designed binder)
chain: MGVSDVPRDLEVVAATPTSLLISWDAPAEGAYGYYRITYGETGGNSPVQEFTVPVSKGTATISGLKPGVDYTITVYAVEYPYPFAGYYHRPISINYRTEIDKPSQHHHHHH
Turning to B7, the EC50 in assay [1] was determined as 3.4 nM. In assay [2], the “LDLR Depletion (% inhibition at 75 nM)” value turned out to be 102%. Further, the affinity in assay [3], expressed as Kd, was 0.677 nM.

B8: 2382E05 (designed binder)
chain: MGVSDVPRDLEVVAATPTSLLISWDAPAEGGYGYYRITYGETGGNSPVQEFTVPVSKGTATISGLKPGVDYTITVYAVEFDFPGAGYYHRPISINYRTEIDKPSQHHHHHH
B8 gave an EC50 in assay [1] of 2.8 nM. In assay [2], the “LDLR Depletion (% inhibition at 75 nM)” value came out at 104%. The Kd in assay [3] was 0.604 nM.

B9: 2382F05 (designed binder)
chain: MGVSDVPRDLEVVAATPTSLLISWDAPAEAGKHYGYYRITYGETGGNSPVQEFTVPVSKGTATISGLKPGVDYTITVYAVEFDFPGAGYYHRPISINYRTEIDKPSQHHHHHH
In the case of B9, in assay [1], it took 2.4 nM to reach a half-maximal effect (EC50). In addition, the “LDLR Depletion (% inhibition at 75 nM)” value in assay [2] stood at 72.2%. The molecule further gave a dissociation constant (Kd) in assay [3] of 4.54 nM.

B10: 2451C06 (designed binder)
chain: MGVSDVPRDLEVVAATPTSLLISWDAPAGAASYGYYRITYGETGGNSPVQEFTVPVSKGTATISGLKPGVDYTITVYAVEFPFPGAGYYHRPISINYRTEIDKPSQHHHHHH
Regarding B10, in assay [1], the half-maximal effective concentration (EC50) worked out at 1.2 nM. For the same molecule, the “LDLR Depletion (% inhibition at 75 nM)” value in assay [2] worked out at 89.4%. Further, the Kd in assay [3] is 1.27 nM.
